In patent US20230364228A1:

Key:
[1] = molecular target: highest binding amyloid (in vitro); assay: calculated from in vitro binding to amyloid, format not stated
[2] = molecular target: highest binding amyloid (in vitro); assay: in vitro binding to amyloid, format not stated

- Michaelis-Menton (MM) EC 90 (calculated) [1]: 36.5 µg/mL
- EC50 [2]: 157 µg/mL
B1: antibody having a heavy chain variable domain (VH) of SEQ ID NO:1 and a light chain variable domain (VL) of SEQ ID NO:2 (CAEL101) (antibody, IgG1, V domains shown)
VH: QVQLKESGPGLVAPSQSLSITCTVSGFSLSSYGVSWVRQPPGKGLEWLGVIWGDGSTNYHPNLMSRLSISKDISKSQVLFKLNSLQTDDTATYYCVTLDYWGQGTSVTVSS
VL: DVVMTQTPLSLPVSLGDQASISCRSSQSLVHRNGNTYLHWYLQKPGQSPKLLIYKVSNRFSGVPDRFSGSGSGTDFTLKISRVEAEDLGLYFCFQTTYVPNTFGGGTKLEIK
